Results: article PMC11373624, “Development and preclinical characterization of a novel radiotheranostic EphA2-targeting bicyclic peptide” (Theranostics, 2024)
Numbered stars: 1 amine (or outer) side, 2 acyl side, 3 side chain; on linkers, the order of the positions; unused ones are H or OH. Bridge positions count the residues as written; N and C are the ends. Square brackets hold non-standard residues; d marks the D form. Peptide text beside a SMILES is read from it. * marks the point of attachment. DOTA = O=C(O)CN1CCN(CC(=O)O)CCN(CC(=O)*)CCN(CC(=O)O)CC1; TATA = O=C(CC[*:1])N1CN(C(=O)CC[*:2])CN(C(=O)CC[*:3])C1; Hyp = O=C(O)[C@@H]1C[C@@H](O)CN1; hArg = N=C(N)NCCCC[C@H](N)C(=O)O; Cba = N[C@@H](CC1CCC1)C(=O)O; βAla = NCCC(=O)O; Sar = CNCC(=O)O

Tests used:
in vivo = conditions: mouse; for tissue to tissue ratio at 1 h / tissue to tissue ratio at 2 h / tissue to tissue ratio at 6 h / tissue to tissue ratio at 24 h: iv, 150 pmol
Source text: (§1) For the cut and count biodistribution study of [^177Lu]Lu-BCY18469 the HT1080 xenograft model was used. […] (n = 3 mice per time point). Thereafter, mice were dissected, and organs of interest harvested, which included: blood, heart, lung, spleen, liver, kidneys, muscle (quadriceps), intestine, brain, tail, bone (femur) and grafted tumor.

HT1080 tumor xenograft = experiment: in vivo; conditions: mouse
Source text: as §1

HT1080 cells = experiment: Cell surface binding and internalization assay; assay type: cell-based, human
Description: To assess internalization and specificity, HT1080 cells (10^5 cells/well) were seeded in a 24-well plate coated with poly-L-lysine one day before the experiment. […] To determine specific uptake, 'cold' (non-radiolabeled) BCY18469 was added to half of the wells at an excess concentration of 10 µM/well or, alternatively, the cells were kept at 4 °C during the experiment. Following the incubation, the cells were thoroughly rinsed with cold PBS (3 x 1 mL). Subsequently, surface bound radioactivity was removed by washing with 50 mM glycine (pH 2.8, 2 x 500 µL). Finally, the internalized fraction was determined by lysing the cells with 0.5 M NaOH (500 µL). All fractions were collected and measured using a gamma counter (Perkin Elmer Wizard2, Germany). All counts were standardized to the initial activity, and specific surface binding as well as specific internalization were calculated by subtracting the non-specific binding values obtained from the wells treated with an excess of 'cold' compound. Results were calculated and expressed as %AA/10^5 cells (% applied activity/10^5 cells).

[1] = total radioactivity, Tumor-to-blood ratio
[2] = total radioactivity, Tumor-to-heart ratio
[3] = total radioactivity, Tumor-to-intestine ratio
[4] = total radioactivity, Tumor-to-kidneys ratio
[5] = total radioactivity, Tumor-to-liver ratio
[6] = total radioactivity, Tumor-to-lung ratio
[7] = total radioactivity, Tumor-to-muscle ratio
[8] = total radioactivity, Tumor-to-spleen ratio
[9] = total radioactivity, Tumor uptake
[10] = 4°C, block with 10 µM non-labeled compound, listed as 177Lu-BCY18469
[11] = 37°C, 45 min, 30 nM, listed as 177Lu-BCY18469

CC(C)C[C@@H]1NC(=O)[C@@H]2CSCCC(=O)N3CN(CN(C3)C(=O)CCSC[C@H](NC(=O)[C@H](CC(=O)O)NC(=O)[C@H](CCCCNC(=N)N)NC(=O)[C@H](C)NC(=O)CN(C)C(=O)CN(C)C(=O)CN(C)C(=O)CN(C)C(=O)CN(C)C(=O)CN(C)C(=O)CN(C)C(=O)CN(C)C(=O)CN(C)C(=O)CN(C)C(=O)CCNC(=O)CN3CCN(CC(=O)O)CCN(CC(=O)O)CCN(CC(=O)O)CC3)C(=O)N3C[C@H](O)C[C@H]3C(=O)N[C@@H](CC3CCC3)C(=O)N[C@@H](C(C)C)C(=O)N[C@@H](CC(N)=O)C(=O)N3CCC[C@H]3C(=O)N[C@@H](CC(C)C)C(=O)N2)C(=O)CCSC[C@@H](C(N)=O)NC(=O)[C@H](CCCCNC(=N)N)NC(=O)[C@H](Cc2c[nH]c3ccccc23)NC(=O)[C@@H](CC(=O)O)NC(=O)[C@@H]2CCCN2C(=O)[C@H](Cc2c[nH]cn2)NC1=O [[177Lu]Lu-BCY18469, metal not drawn] ({DOTA-βAla}-[Sar][Sar][Sar][Sar][Sar][Sar][Sar][Sar][Sar][Sar]A[hArg]DC[Hyp][Cba]VNPLCLHP[dD]W[hArg]C-NH2; linker 14-21-28 via TATA)
tissue uptake at 1 h (in vivo; Blood uptake): 0.2 %ID/g | tissue uptake at 2 h (in vivo; Blood uptake): 0.03 %ID/g | tissue uptake at 6 h (in vivo; Blood uptake): 0.02 %ID/g | tissue uptake at 24 h (in vivo; Blood uptake): 0.01 %ID/g | tissue uptake at 1 h (in vivo; Bone uptake): 0.3 %ID/g | tissue uptake at 2 h (in vivo; Bone uptake): 0.21 %ID/g | tissue uptake at 6 h (in vivo; Bone uptake): 0.56 %ID/g | tissue uptake at 24 h (in vivo; Bone uptake): 0.44 %ID/g | tissue uptake at 2 h (in vivo; Brain uptake): 0.01 %ID/g | tissue uptake at 6 h (in vivo; Brain uptake): 0.01 %ID/g | tissue uptake at 1 h (in vivo; Heart uptake): 0.1 %ID/g | tissue uptake at 2 h (in vivo; Heart uptake): 0.03 %ID/g | tissue uptake at 6 h (in vivo; Heart uptake): 0.05 %ID/g | tissue uptake at 24 h (in vivo; Heart uptake): 0.03 %ID/g | tissue uptake at 1 h (in vivo; Intestine uptake): 0.34 %ID/g | tissue uptake at 2 h (in vivo; Intestine uptake): 0.16 %ID/g | tissue uptake at 6 h (in vivo; Intestine uptake): 0.15 %ID/g | tissue uptake at 24 h (in vivo; Intestine uptake): 0.1 %ID/g | tissue uptake at 1 h (in vivo; Kidneys uptake): 65.3 %ID/g | tissue uptake at 2 h (in vivo; Kidneys uptake): 47.2 %ID/g | tissue uptake at 6 h (in vivo; Kidneys uptake): 62.6 %ID/g | tissue uptake at 1 h (in vivo; Liver uptake): 0.25 %ID/g | tissue uptake at 2 h (in vivo; Liver uptake): 0.15 %ID/g | tissue uptake at 6 h (in vivo; Liver uptake): 0.6 %ID/g | tissue uptake at 24 h (in vivo; Liver uptake): 0.53 %ID/g | tissue uptake at 1 h (in vivo; Lung uptake): 0.7 %ID/g | tissue uptake at 2 h (in vivo; Lung uptake): 0.19 %ID/g | tissue uptake at 6 h (in vivo; Lung uptake): 0.28 %ID/g | tissue uptake at 24 h (in vivo; Lung uptake): 0.13 %ID/g | tissue uptake at 1 h (in vivo; Muscle uptake): 0.06 %ID/g | tissue uptake at 2 h (in vivo; Muscle uptake): 0.02 %ID/g | tissue uptake at 6 h (in vivo; Muscle uptake): 0.03 %ID/g | tissue uptake at 24 h (in vivo; Muscle uptake): 0.02 %ID/g | tissue uptake at 1 h (in vivo; Spleen uptake): 0.6 %ID/g | tissue uptake at 2 h (in vivo; Spleen uptake): 0.16 %ID/g | tissue uptake at 6 h (in vivo; Spleen uptake): 0.4 %ID/g | tissue uptake at 24 h (in vivo; Spleen uptake): 0.31 %ID/g | tissue uptake at 1 h (in vivo; Tail uptake): 1.8 %ID/g | tissue uptake at 2 h (in vivo; Tail uptake): 0.7 %ID/g | tissue uptake at 6 h (in vivo; Tail uptake): 0.83 %ID/g | tissue uptake at 24 h (in vivo; Tail uptake): 0.38 %ID/g | tissue uptake at 2 h (in vivo; Tumor uptake): 9.99 %ID/g | tissue to tissue ratio at 1 h (in vivo; [1]): 97.5 | tissue to tissue ratio at 2 h (in vivo; [1]): 333 | tissue to tissue ratio at 6 h (in vivo; [1]): 278 | tissue to tissue ratio at 24 h (in vivo; [1]): 177 | tissue to tissue ratio at 1 h (in vivo; [2]): 195 | tissue to tissue ratio at 2 h (in vivo; [2]): 333 | tissue to tissue ratio at 6 h (in vivo; [2]): 111 | tissue to tissue ratio at 24 h (in vivo; [2]): 59 | tissue to tissue ratio at 1 h (in vivo; [3]): 57.4 | tissue to tissue ratio at 2 h (in vivo; [3]): 62.4 | tissue to tissue ratio at 6 h (in vivo; [3]): 37.1 | tissue to tissue ratio at 24 h (in vivo; [3]): 17.7 | tissue to tissue ratio at 1 h (in vivo; [4]): 0.3 | tissue to tissue ratio at 2 h (in vivo; [4]): 0.21 | tissue to tissue ratio at 6 h (in vivo; [4]): 0.09 | tissue to tissue ratio at 24 h (in vivo; [4]): 0.03 | tissue to tissue ratio at 1 h (in vivo; [5]): 78 | tissue to tissue ratio at 2 h (in vivo; [5]): 66.6 | tissue to tissue ratio at 6 h (in vivo; [5]): 9.27 | tissue to tissue ratio at 24 h (in vivo; [5]): 3.34 | tissue to tissue ratio at 1 h (in vivo; [6]): 27.9 | tissue to tissue ratio at 2 h (in vivo; [6]): 52.6 | tissue to tissue ratio at 6 h (in vivo; [6]): 19.9 | tissue to tissue ratio at 24 h (in vivo; [6]): 13.6 | tissue to tissue ratio at 1 h (in vivo; [7]): 325 | tissue to tissue ratio at 2 h (in vivo; [7]): 500 | tissue to tissue ratio at 6 h (in vivo; [7]): 185 | tissue to tissue ratio at 24 h (in vivo; [7]): 88.5 | tissue to tissue ratio at 1 h (in vivo; [8]): 32.5 | tissue to tissue ratio at 2 h (in vivo; [8]): 62.4 | tissue to tissue ratio at 6 h (in vivo; [8]): 13.9 | tissue to tissue ratio at 24 h (in vivo; [8]): 5.71 | tissue uptake at 24 h (in vivo; total radioactivity, Kidneys uptake): 54.9 ± 17.1 %ID/g | tissue uptake (in vivo; total radioactivity, Non-target organs uptake): ≤ 1 %ID/g | tissue uptake at 1 h (in vivo; [9]): 19.5 ± 3.5 %ID/g | tissue uptake at 6 h (in vivo; [9]): 5.56 ± 1.24 %ID/g | tissue uptake at 24 h (in vivo; [9]): 1.77 ± 0.51 %ID/g | Brain uptake (HT1080 tumor xenograft; 1 h): 0 %ID/g | Brain uptake (HT1080 tumor xenograft; 24 h): 0 %ID/g | Tumor-to-muscle ratio (HT1080 tumor xenograft; iv, 150 pmol, 24 h): 88 | Cell Surface B 4°C (HT1080 cells; [10]): 0.05 ± 0.01 %AA/10^5 cells | Internalization B 4°C (HT1080 cells; [10]): 0.01 ± 0.01 %AA/10^5 cells | Cell Surface 4°C (HT1080 cells; 4°C, listed as 177Lu-BCY18469): 0.51 ± 0.01 %AA/10^5 cells | Internalization 4°C (HT1080 cells; 4°C, listed as 177Lu-BCY18469): 0.06 ± 0.01 %AA/10^5 cells | Cell Surface (HT1080 cells; [11]): 0.62 ± 0.03 %AA/10^5 cells | Internalization (HT1080 cells; [11]): 0.13 ± 0.01 %AA/10^5 cells | Cell Surface B (HT1080 cells; 37°C, block with 10 µM non-labeled compound): 0.02 ± 0.01 %AA/10^5 cells | Internalization B (HT1080 cells; 37°C, block with 10 µM non-labeled compound, listed as 177Lu-BCY18469): 0.01 ± 0.01 %AA/10^5 cells
